Laboratory results taken from the supplement of paper PMC9732359.
± gives the uncertainty stated by the source.

Assay: protein stability index of a GFP-peptide fusion (yeast GPS) (PSI 1-4); higher = more stable; sorted into four equal gates, so the index is relative within each strain
Summary of the method: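 Yeast carrying a pooled library were grown to mid-log phase in leucine-free medium. Each library plasmid expresses Cherry and has a tiled 17-residue yeast protein peptide fused downstream of GFP. Cells were sorted into four equal gates by GFP/Cherry ratio, and plasmids from each gate were PCR-amplified, Illumina-sequenced and assigned to strains by barcode. Summing, across gates, the read frequency times the gate number gave each peptide's protein stability index.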

Sequence | protein stability index (doa10∆) | protein stability index (pdr5∆) | protein stability index (san1∆) | protein stability index (ubr1∆)
VKQYNKKWPQFYAAVQK [SIN4] | 1.49 ± 0.15 | 1.93 ± 0.1 | 1.55 ± 0.1 | 1.68 ± 0.047
FGRKNDRQCMIMDELLS [DIB1] | 2.57 ± 0.047 | 2.65 ± 0.038 | 2.49 ± 0.057 | 2.73 ± 0.034
YNGFIDIFSNLSSDDLL [YCS4] | 3.16 ± 0.044 | 2.99 ± 0.066 | 3.28 ± 0.056 | 3.08 ± 0.037
RSNGSVASLSKRNKLLT [YJL039C/NUP192] | 1.73 ± 0.1 | 1.55 ± 0.068 | 2.1 ± 0.12 | 1.54 ± 0.062
LNCGNGMGIGFIDHHAA [POP1] | 3.33 ± 0.086 | 3.13 ± 0.07 | 3.33 ± 0.07 | 3.42 ± 0.046
GELRSYLKGATGHSQGL [FAS1] | – | – | – | 3.87 ± 0.22
LQRTILNRIINHMLIDS [RGR1] | 2.76 ± 0.057 | 2.4 ± 0.081 | 2.21 ± 0.093 | 1.72 ± 0.066
QRRYVIKEKVQFNATIN [ITC1] | 1.47 ± 0.04 | 1.65 ± 0.033 | 1.63 ± 0.069 | 1.68 ± 0.024
LEYEISKLKKETASFIP [YIL149C/MLP2] | 2.66 ± 0.08 | 2.8 ± 0.085 | 2.89 ± 0.06 | 2.68 ± 0.059
KGTEASNDIIDKPYLLR [YDL116W/NUP84] | 3.33 ± 0.09 | 3.23 ± 0.078 | 3.34 ± 0.1 | 2.76 ± 0.11
AGQIPTGWNAKTYGISD [FAS2] | 1.68 ± 0.14 | 1.36 ± 0.12 | 1.66 ± 0.26 | 1.23 ± 0.09
VDPARRQILFKYPMYMQ [MED6] | 1.54 ± 0.069 | 1.78 ± 0.076 | 1.95 ± 0.17 | 1.47 ± 0.051
MFHGAKGPLLIERIGHL [PCI8] | 2.5 ± 0.22 | – | – | –
LGVKSRLLEKSELPDIY [SNF2] | 3.12 ± 0.13 | 3.42 ± 0.15 | 3.05 ± 0.082 | 3.11 ± 0.19
QTLKGVGVENNGQYAAF [RPC37] | 3.12 ± 0.14 | 3.31 ± 0.098 | 2.9 ± 0.18 | 2.94 ± 0.2
KLDSKKILPTDIQLKNL [SRP68] | 2.74 ± 0.1 | 2.78 ± 0.078 | 2.79 ± 0.061 | 2.69 ± 0.059
KDRISSCSSKEKTLVLE [SMC4] | 2.58 ± 0.097 | 2.6 ± 0.083 | 2.45 ± 0.12 | 2.88 ± 0.098
HGIKDIPIGHVHVIHFQ [AAR2] | 2.89 ± 0.06 | 2.86 ± 0.058 | 2.87 ± 0.059 | 2.75 ± 0.041
MERLQRLMMNSKVGSAD [RPN11] | 3.28 ± 0.15 | 2.98 ± 0.17 | 3.42 ± 0.097 | 3.22 ± 0.12
TLAERQQLAYDLSISAL [RPN9] | 2.39 ± 0.078 | 2.47 ± 0.13 | 2.77 ± 0.24 | 2.95 ± 0.093
HVLSRLSYISALGMMTR [RET1] | 1.35 ± 0.073 | 1.32 ± 0.053 | 1.24 ± 0.13 | 1.33 ± 0.073
DEIHIPAPSKPVIDYEL [BRR2] | 3.19 ± 0.073 | 3.08 ± 0.077 | 2.88 ± 0.059 | 2.78 ± 0.061
LPLLYNFNPDNGFAPIS [FAS1] | 2.03 ± 0.12 | 2.63 ± 0.054 | 2.47 ± 0.093 | 2.72 ± 0.068
PDRHVIFLAERRILPKP [RPS7B] | 2.81 ± 0.18 | 2.75 ± 0.14 | 2.99 ± 0.096 | –
LSLVYEIGGSDLKESMV [ECM29] | 2.98 ± 0.11 | 3.32 ± 0.12 | 3.36 ± 0.051 | 3.28 ± 0.11
GITYRREDMPFTAEGIV [RPB2] | 2.52 ± 0.096 | 1.86 ± 0.099 | 2.39 ± 0.13 | 2.07 ± 0.12
RVSLQDIKDFADKVYTK [QCR2] | 2.85 ± 0.069 | 3.07 ± 0.082 | 2.62 ± 0.079 | 2.67 ± 0.076
RTLWPEFIPPDPTKVTE [SSN8] | 2.49 ± 0.042 | 2.73 ± 0.038 | 2.78 ± 0.04 | 2.671 ± 0.026
